From patent US20080063635A1 (Kyowa Kirin, published 2008)

B1: 4D11-G[1/1/4/4] (antibody, V domains shown)
VH: QLQLQESGPGLLKPSETLSLTCTVSGGSISSPGYYGGWIRQPPGKGLEWIGSIYKSGSTYHNPSLKSRVTISVDTSKNQFSLKLSSVTAADTAVYYCTRPVVRYFGWFDPWGQGTLVTVSS
VL: AIQLTQSPSSLSASVGDRVTITCRASQGISSALAWYQQKPGKAPKLLIYDASNLESGVPSRFSGSGSGTDFTLTISSLQPEDFATYYCQQFNSYPTFGQGTKVEIK
notes: Chimeric heavy chain constant region: CH1 and hinge from human IgG1 (N5KG1), CH2 and CH3 from human IgG4 (N5KG4PE); also called IgG[1/1/4/4]; N5KG1144 with 4D11 variable regions
B2: 4D11-G[4/4/4/1] (antibody, V domains shown)
VH: B1 VH
VL: B1 VL
notes: Chimeric heavy chain constant region: CH1, hinge and CH2 from human IgG4 (N5KG4PE, with S228P and L235E), CH3 from human IgG1; also called IgG[4/4/4/1]; N5KG4441 with 4D11 variable regions
B3: 4D11-G[4/4/1/1] (antibody, V domains shown)
VH: B1 VH
VL: B1 VL
notes: Chimeric heavy chain constant region: CH1 and hinge from human IgG4 (N5KG4PE, with S228P and L235E), CH2 and CH3 from human IgG1 (N5KG1); also called IgG[4/4/1/1]; N5KG4411 with 4D11 variable regions
B4: 4D11-G[4/4/1/4] (antibody, V domains shown)
VH: B1 VH
VL: B1 VL
notes: Chimeric heavy chain constant region: CH1 and hinge from human IgG4 (N5KG4PE, with S228P and L235E), CH2 from human IgG1, CH3 from human IgG4; also called IgG[4/4/1/4]; N5KG4414 with 4D11 variable regions

What follows are binders tested against T1, CD40 (UniProt P25942 21-277, limits assumed) (assay: flow cytometry on Ramos cells, R-PE anti-human antibody).
T1 construct: whole, on cells; also called CD40 on Ramos cells
T1 sequence (P25942 21-277 limits assumed): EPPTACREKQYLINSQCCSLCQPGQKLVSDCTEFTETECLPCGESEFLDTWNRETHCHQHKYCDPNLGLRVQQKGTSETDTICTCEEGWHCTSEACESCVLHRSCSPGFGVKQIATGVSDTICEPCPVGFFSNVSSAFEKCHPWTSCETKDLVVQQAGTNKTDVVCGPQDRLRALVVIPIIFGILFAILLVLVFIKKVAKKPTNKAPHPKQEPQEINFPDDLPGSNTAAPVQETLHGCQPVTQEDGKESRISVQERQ
Description: A Ramos cell line was suspended in a PBS staining buffer (SB) containing 0.1% NaN₃ and 2% FCS at a concentration of 2×10⁶/ml. The cell suspension (100 μl/well) was dispensed into wells of a 96-well round-bottom plate (manufactured by Becton, Dickinson and Company). Each hybridoma culture supernatant (50 μl) was added thereto, followed by incubation at a temperature below freezing for 30 minutes. A human IgG1 antibody to human serum albumin as a negative control was adjusted to a concentration of 2 μg/ml in a hybridoma culture medium. The medium (50 μl) was added to the plate, followed by incubation at a temperature below freezing for 15 minutes. After washing the plate with SB, 50 μl of a 250-fold diluted R-PE fluorescently labeled anti-human antibody (Southern Biotechnology Associates, Inc.) was added to the plate, followed by incubation at a temperature below freezing for 15 minutes. After washing with SB twice, the plate was suspended in 300 to 500 μl of a FACS buffer, and the fluorescence intensity of each cell was measured using FACS (FACSort, FACScan, manufactured by Becton, Dickinson and Company).

Binder | binding result
B1 | binds
B2 | binds
B3 | binds
B4 | binds
